T1: human transglutaminase type 2 (TG2) (human, UniProt P21980 2-687)
T1 sequence: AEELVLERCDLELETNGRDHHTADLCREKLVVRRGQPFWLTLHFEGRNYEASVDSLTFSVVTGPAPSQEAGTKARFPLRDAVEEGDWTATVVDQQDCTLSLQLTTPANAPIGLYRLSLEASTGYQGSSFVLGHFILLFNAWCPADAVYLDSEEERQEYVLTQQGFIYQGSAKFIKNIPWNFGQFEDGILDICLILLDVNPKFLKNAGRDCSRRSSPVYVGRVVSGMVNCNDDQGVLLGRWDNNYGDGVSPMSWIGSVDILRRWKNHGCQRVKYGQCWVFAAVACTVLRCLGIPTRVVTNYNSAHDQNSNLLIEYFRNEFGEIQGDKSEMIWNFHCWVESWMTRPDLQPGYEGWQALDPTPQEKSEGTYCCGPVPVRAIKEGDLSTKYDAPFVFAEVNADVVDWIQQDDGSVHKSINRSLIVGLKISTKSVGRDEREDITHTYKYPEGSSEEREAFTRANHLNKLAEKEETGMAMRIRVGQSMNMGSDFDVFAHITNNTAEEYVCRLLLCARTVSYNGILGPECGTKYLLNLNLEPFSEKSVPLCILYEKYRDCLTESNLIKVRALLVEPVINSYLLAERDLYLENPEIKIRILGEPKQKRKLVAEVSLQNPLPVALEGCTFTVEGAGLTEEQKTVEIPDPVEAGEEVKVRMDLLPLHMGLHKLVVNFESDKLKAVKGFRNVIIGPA

B1: Zampilimab (antibody, V domains shown)
VH: EVQLLESGGGLVQPGGSLRLSCAASGFTLSTHAMSWVRQAPGKGLEWVATISSGGRSTYYPDSVKGRFTISRDNSKNTLYLQMNSLRAEDTAVYFCARLISTYWGQGTLVTVSS
VL: DITMTQSPSSLSASVGDRVTITCKASQDINSYLTWFQQKPGKAPKILIYLVNRLVDGVPSRFSGSGSGQDYALTISSLQPEDFATYYCLQYDDFPYTFGQGTKVEIK
B2: rbBB7 (antibody, V domains shown)
VH: EVQLLESGGRLVTPGGSLTLTCAASGIIFSSSAMSWVRQAPGKGLEWVATISSGGRSTYYPDSVKGRFTVSRDSSKNTLYLQMNSLRAEDTAVYYCAKLISPYWGQGTLVTVSS
VL: AIKMTQTPSSVSAAVGGTVTISCKASQDINSYLTWFQQKPGQPPKTLIYLTNRLMDGVPSRFSGSGSGQEFLLTISGLECDDAATYYCLQYVDFPYTFGGGTKVVVK

Tests used:
rabbit TG2 = rabbit TG2 (rabbit); assay: cell-based or functional assay
[1] = target: T1, human transglutaminase type 2 (TG2); assay: cell-based or functional assay

Row | Binder | IC50 against rabbit TG2 (assay not given) (rabbit TG2) [nM] | IC50 against human TG2 (assay not given) [1] [nM]
1 | B1 | 103 | 0.25
2 | B2 | 8 | 0.3
